Test: yeast display, Sf9 membrane polyspecificity reagent, FACS + sequencing; frameworks hold sequencing errors
How it was run: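 Nanobodies from a synthetic yeast display library (Saccharomyces cerevisiae BJ5465), induced 36–48 hours with galactose, were stained 1 hour at 4 °C with 10% biotinylated, detergent-solubilized Sf9 membrane reagent, enriched on streptavidin microbeads, then FACS-sorted. Anti-HA (expression) and streptavidin (reagent binding) fluorescence set low and high (top ~1%) gates. Polyreactivity labels come from the gate of origin. Genes were colony-PCR amplified, MiSeq 2 × 250 sequenced and filtered by CDR length.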

Sequence	polyreactivity (PSR sort gate)
QVQLVESGGGLVQAGGSLRLSCAASGFIFQYFAMGWYRQAPGKERELVAGITSGVRPYYADSLKGRFTISRDNAKNTVYLQMNSLKPEDTAVYYCARLDSAAEPRQYDYWGQGTQVTVSS	high polyreactivity
QVQLVESGGGLVQAGGSLRLSCAASGIIFYYYAMGWYRHAPGKERELVAAISTSGTRTFYADSVKGRFTISRDNAKNTVYLQMNCLKPEDTAVYYCAARIYKPQRSSSLYRTSGYWGQGTQVTVSS	high polyreactivity
QDQLVESGGGLVQAGGSLRISCAASGSTFIYNAMGWYRQAPGKERELVATITGRGSTYYAYSVKGRFTISRDNAKNTVYLQLNSLKPEDTAVYYCAATIFNSFYWRYGYWGQGSQVTVSS	low polyreactivity
QVQLVESGGGLVQAGGSLRISCAASGRTFRRYEMGWYREAPGKERELVASISSSAGSTYYADSVKGRFTISRDNAKNTVYFQMNSLKPEDTAVYYCAFVPTVYARSRYGYWGQGTQVTVSS	high polyreactivity
QVQLVESGGGLVHAGGSLRLSCAASGFTFRYGMGWYRQAPRKERELVAAISNTGGSTYYADSVKGRFTISRDNAKNTVYLKMNSLKPEDTSVYYCAAAGGLWWVFYALDYWGQGTQVSVSS	low polyreactivity
QVQLVESGGGLVQAGGSLSLSCAASGSIFRGNAMGWYRQAPGKERELVAANSYSSGTTYYADSVKGRFTISRDNAKNTVYFQMNSLKPEDTAVYYCATRYYRGYVRGTHHVGGYYYRGQGTQVTVSS	low polyreactivity
QVQLVESGGGLVQAGGSLRLSCAASGGTFGSNAMGWYRQAPGKERELLAAISFSDGITYYADSVKGRFTISRDNAKNTVYLQMNSLKPEDSAVYYCAAELGTSRGGDTMEYWGQGTKVTVSS	high polyreactivity
QVQLVESGGGLVQAGGSLRLSGAASGRTFVYYAMGWYRQAPGKEREFVAAISRSGGRTSYADSVKGRFTISRDNAKNTVYLQMNSLKPEDTAVYDCAKRPQFFWSHPYDYWGQGTLVTVSS	high polyreactivity
QVQLVESGGGLVQAGGSLRLSCAASGRTFGVYAMGWYRQAPGKERELVATIRTTGSTNYADSVKGRFTISRDNAKNTVYLQMNSLKTEDTAVYYCGARQRQSKYYPYTTFTYDYWGQGTQVTVSS	high polyreactivity
QVQLVESGGGLVQAGGSLRLSCAASGRIFSYYTLGWYRQAPGKERELVAAIRISSGGTYYADSVKGRFTISRDNAKNTVYLQMNSLKPEDTAVYYCAARYYGFPSKYDYWGQGTQVTVSS	high polyreactivity
QDQLVESGGGLVQAGGSLRLSCAASGSTFKKYALGWYRQAPGKERELVAAITGSGGRTYYADSVKGRFTISRDNAKNTVYLQMNSLKPEDTAVYYCAARRYLSGGYYYCGQGTQVTVSS	high polyreactivity
QVQLVESGGGLVQAGGSLRLSCAASGFTFVGYAMGWYRQEPGKERELVAAISTRGGSTYYADSVKGRFTISRDNAKNTDYLQMNSLKPEDTAVYYCNARGAKRGLLSYYWGQGTQVTVSS	high polyreactivity
QVQLVESGGGLVQAGGSLRLSCAASGRTFAYYAMGWYRQAPGKERELVAAISTSGTRTYYADSVKGRFTISRDNAKNTVYLQMNSLKPEDTAVYYCAARYRYQYEFDYWGQGTQVSVSS	high polyreactivity
QVQLVESGGGLVQAGGSLRLSCAASGLTFVQNAMGWYRQAPGKERELVAAISTSGGSTYYADSVKGRFTISRDNAKNTVYLQMNSLKPEDTAVYYCAAYPRSWWRGYDYWGQGTQVTVSS	high polyreactivity
QVQLVETGGGLVQAGGSLRLSCAASGSTFYYNAMGWYRQAPGKERELVARITRSGGSTYADSVKGRFTISRDNAKNSVYLQMNSLKPEVTAVYYWNADAYGTPEFTSYALRYDYWGQGTQVTVSS	low polyreactivity
QVQLVESGGGLVQAGGSLRLSCAASGSTLVTHAMGWYRQAPGKERELVAGISRSGGSTYYADSVKGRFTISRDNAKNTVYLQMNSLKPEDTAVYYCAARNYRYLYRMEYWGQGTQVTVSS	high polyreactivity
QFQLVESGGGLVQAGGSLRLSCAASGRTFQLNAMGWYRQAPGKERELVAAISTRGGSTNYADSVKGRFTISRDNAKNTVYLQMNRLKPEDTAVYYCAKDPSFTRGFKEGGGYDYWGQGSQVTVSS	high polyreactivity
QGQLVESGGGLVQAGGSLRLRSAASGRTFNYYAMGWYRQAHGKERELVATSSWSGVSTRYADSVKGRFTISRDNAKNTVYLEMNSLNPEDTAVYYCNAGYSKRSFYSAYGYWGEGTQVTVSS	high polyreactivity
QVQLVESGGGLVQAGGSLRLSCAASGFTYYVNAMGWYRPAPGKERELDAAISSSGTRTYYADSVKGRFTISRDNAKNTVYLQMNSLKPEDTAVYYCAARGQAYSGDRMYYWGQGTQVTVSS	high polyreactivity
QVQLVESGGGLVQAGGSLRLSCAASGSTFVRYSMGWYRQAPGKERDLVAAITSSGGSTYYADSVKGRFTISRDNAKNSVYFQMNSLKPEDTAVYDFAAARYPYRYIYNYWGQGTQVTVSS	high polyreactivity
QVQLVESGGGLVQAGGSLRLSCAASGRISGFNAMGWYRQAPGKDRELVAAISYRGGSTSADSVKGRFTISRDNAKNTVYLQMNSLKPEDTAVYYCAADVRFYQYSDYDYWGQGTQVTVSS	low polyreactivity
QVQLVESGGGLVQAGRSLRLSCAASGSIFPGNAMGWYRQAPGKERELVASINWSGGSTYYADSVKGRFTISRDNAKNTVYLQMNSLKPEDTAVYYCNADPGYYDYDYWGQVTQVTVSS	low polyreactivity

Sequence	polyreactivity (PSR sort gate)
QVHLVESGGGLVQAGGSLRLSCDASGSTFLSNAMGWYRQAPGKERELVAAITTSGTSTFYADSVKGRFTISRDTAKNTVYLQMNSLKPEDTAVYCAKDYLPYLHFVAPSTGDYDYWGQGTQVTVSS	low polyreactivity
QVQLVESGGGLVQAGGSLRLSSAASGSTFRTYTMGWYRQAPGKERELVASITSGGRTYYADSVKGRFTISRDNAKNTVYLQMNSMKPEDTAVYYCAADVCKLYDYWGQGTQVTVSS	low polyreactivity
QVQLVESGGGLVQAGGSLRLSCAASGRTFRPYAMGWYRQAPGKERELVAAIDSSGTSTYYADSVKGRFTISRDNAKNTVYLQMNSLKPEDTAVYYCNTSLKRRRLRFNYWGQGTQVTVSS	low polyreactivity
QVQLVESGGGLVQAGGSLRLSCAASGFIFDTYAMGWYRQAPGKERELVARINYSGGSTRYADSVKGRFTISRDNAKNTVYLQMNSLKPEDTAVYYCAAREFSYGFYYWGQGTQVTVSS	high polyreactivity
QVQLVESGGGLVQAGGSLRLSCAASGLTFYQYTMGWYRQAPGKERELVAAISRRGGSTYYADSVKGRFTISRDNAKNTVYLQMNSLKPEDTAVYYCAARALRYSSDFDYWGQGTQVTVSS	high polyreactivity
QVQLVESGGGLVQAGGSLRLSCAASGSTFTRNAKGWYRQAPGKERELVAAITSSGSRTYYADSVKGRFTISRDNAKNTVYLQMNRLKPEDTAVYYCAGLGDTRYVAMDHWGQGTQVTVSS	high polyreactivity
QVQLVESGGGLVQAGGSLRLSCAASGFTFNPNAMGWYRQAPGKERELVAPITRSGGSTYYADSVKGRFTISRDNAKNTVYLQMNSLKPEDTAVYYCNAPFRVSTTRRRYPGIDSHYYWGQGTQVTVSS	high polyreactivity
QVQLVESGGGLVQAGVSLRLSCAASGSIFSWNAMGWYRQAPGKERELVATITWNGGRTYYADSVKGRFTISRDNAKNTVYLQMNSLKPEDTAVYYCAARYYVYWTYPYRVLSYYYWGQGTQVTVSS	high polyreactivity
QVQLVESGGGLDQAGRSLRLSCAASGRTDVTYAMGWYRQAPGKEREFVAAISASGGTTYYADSVKGRFTISRDNSKNTVYLQMNSRKPEDTAVYYCAADIRGTVYLSSFWMEYWGQGTQVNVSS	low polyreactivity
QVQLVESGGGLVQAGGSLRLSCADSGRTSRVYAMGWYRQEPAKERELVAAITWRGGNTYYADSVKGRFTISRDNAKNTVYLQMNSLKPEDTAVYYCAADPLSYGSWHGDSWGQGTQVTLSS	high polyreactivity
QVQLVELGGGLVQAGGILRLSCAASGSIFSWNDMGWYRQAPGKERELVAAITSGGSTYYADSVKGRFTISRDNAKNTVYLQMNSLKPEDTAVYYCAAGQDLHDFDYWGQGTQVTVSS	low polyreactivity
QVQLVESGGRLVQAGGSLRLSCADSGSIFEYYAMGWYRQAPGKEREFVAAISDNGDSTYYADSVKGRFTISRDNAKNTVYLQMNSLKPEDTEVYYCNKTPVDDPPWCYDSWGQGTQVTVSS	low polyreactivity
QVQLVESGGGLFQAGGSLRLICAASGRTYYAYARGWYRQAPGKERELVAAITSGGSTYYADSVKGRFTISRDNAKNTVYLQMNSLKPEDTAVYYCNAGYYQWPFSGYDYWGQGTQVTVSS	low polyreactivity
QVQLVESGGGLVQAGGSLRLSCAASGSTFAYYAMGWYRQAPGKERELVAAISSGGSTYYADSVKGRFTISRDNAKNTVYLQMNSLKPEDTAVYYCNKLWVGKFKRYEFGYWGQGTQVTVSS	low polyreactivity
QVQLVESGGGLVQAGGSLRLSCAASGSTFTLYAKGWYRQAPGKERELVAAINGAGSTYYADSVKGRFTISRDNAKNTVYLQMNSLKPEDTAVYYCAKDLQYGWYDYWGQGTQVTVSS	low polyreactivity
QVQLVESGGGLVQAGGSLRLSCPASGRTFKYYAMGCYRQSPGKESELVAAITSTGGSTYYADSVKGRFTISRDNAMNTVYLQMNSLKPEDTAVYYCNRYTQYRDRSDNHWGQGTQVTVSS	high polyreactivity
QVQLVESGGGLVQAGGSLRLSCAASGSIFGFYAMGWYRQAPGKERELVAAISDSGDSTYYADSVKGRFTISRDNAKNTVYLQMNSLKPEDTAVYYCATDGRSNYYWGDYWGQGTQVTVSS	low polyreactivity
QVQLVESGGGLVQAGGSLRLSCAASGRTIRYYAMGWYRQAPGKERELVAAITSGGSTYYADSVKGRFTISRDNAKNTVYLQMNSLKPEDTAVYYCAAARYEPFIYDYGYWGQGTQVTVSS	low polyreactivity
QVQLVESGGGLVQAGGSLRLSCAASGRTFTSYAMGSYRQAPGKERELVAVITRRGGSTSYADSVKGRFTISRDNAKNTVYLQMNSLKPEDTAVYYCAAKRTWPDVNYYYWGQGTQVTVSS	high polyreactivity
QVQLVESGGGLVQAGGSLRLSCAASGSIFGRYAKRWYRQAPGKERELVAAISWNGGSTYYADSVKGRFTISRDNAKKTVDLQMNSLKPEDPAVYYCAVLSWWTKLSRRFYYWGQGTQVTVSS	high polyreactivity
HVQLVESVGGLVQAGGSLRLSCAASGRILGDNVMGWYRQAPGKERELVAAISSGSGSTYYADSVKGRFTISRDNAKNTVYLQMNSLKPEDTAVYYCAAGPYIYPRYDYWGQGTQVTVSS	low polyreactivity
